Here are results for one molecule from patent US20190135928A1 (Bristol-Myers Squibb, published 2019).

The target of experiment [1] is T1, soluble TL1A-SH6 protein (his tagged) (Homo sapiens (Human), UniProt O95150 57-251, limits assumed).
T1 construct: also called TL1A SH6 antigen; not shown: His tag (detected with anti 6xHis antibody)
T1 sequence: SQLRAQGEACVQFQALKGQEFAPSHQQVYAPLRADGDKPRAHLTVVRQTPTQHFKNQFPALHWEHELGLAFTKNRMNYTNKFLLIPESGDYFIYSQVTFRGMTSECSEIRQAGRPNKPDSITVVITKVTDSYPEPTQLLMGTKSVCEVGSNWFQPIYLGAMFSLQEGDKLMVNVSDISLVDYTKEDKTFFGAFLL
Description: FACS, inhibition of the binding of TL1A SH6 (200 ng/ml) to hDR3 CHO cells, detection with PE anti-6xHis; the box prints no unit, the axis is Log nM. The procedure:
(§1) TL1A SH6 at 200 ng/ml (50 ul) was incubated with dilutions of 10A4.F7 (50 ul) antibody or control IgG1 antibody (all reagents in FACS buffer). The mixture was incubated for 30 minutes and then added to 10⁵ hDR3 CHO cells in 100 ul of FACS buffer and incubated for 1 hr. Cells were washed twice in FACS buffer and TL1A binding to DR3 CHO cells was detected by staining cells with PE anti 6×His antibody (R&D systems) and evaluated by FACS.
(§2) Identification of anti-TL1A antibodies that block TL1A binding to DR3 were also done by FACS by using soluble TL1A-SH6 protein (his tagged) binding to hDR3 expressed on CHO cells (DR3 CHO). Anti-TL1A or control antibodies were incubated with TL1A SH6 antigen at 0.1-0.5 ug/ml for 30 minutes in FACS buffer and then hDR3 CHO cells were added to the antibody TL1A mix and incubated for 30 minutes. Cells were washed and TL1A binding to hDR3 CHO cells was detected with PE anti-His antibody followed by FACS. Blocking antibodies prevent TL1A SH6 from binding to hDR3 CHO cells (FIG. 2).

Experiment [2] deals with T2, TL1A expressed on transfected CHO cells (Homo sapiens (Human), UniProt O95150 1-251).
T2 construct: also called TL1A CHO cells; TL1A expressing CHOs cells
T2 sequence: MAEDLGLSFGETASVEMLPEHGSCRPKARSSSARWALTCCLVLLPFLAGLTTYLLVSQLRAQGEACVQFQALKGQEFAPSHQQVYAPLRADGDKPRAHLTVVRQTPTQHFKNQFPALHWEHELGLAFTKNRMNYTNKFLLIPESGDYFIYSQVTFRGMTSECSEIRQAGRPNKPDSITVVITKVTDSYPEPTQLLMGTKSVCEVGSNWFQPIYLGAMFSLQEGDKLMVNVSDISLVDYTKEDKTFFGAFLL
In words: flow cytometry, titration of the antibody on TL1A CHO cells, PE anti-human IgG (Fc specific) detection. The procedure: (§3) Dilutions of TL1A antibody were incubated with 10⁵ TL1A CHO cells in 100 ul FACS buffer for 1 hr. Cells were washed two times with FACS buffer and antibody binding was detected by staining with PE anti human […] antibody and evaluated by FACS.
(§4) FACS assays were used to verify that antibodies of the disclosure are binding to native TL1A expressed on cells. Briefly, dilutions of antibody in PBS 1% BSA plus 0.5% sodium azide (FACS buffer) were incubated with transfected CHO cells expressing TL1A (10⁵ cells) for 30-60 minutes at 4 C. Cells were washed twice by centrifugation, aspiration of supernatant, and addition of fresh FACS buffer. Antibody binding to TL1A on cells was detected by incubating the cells in PE (Phycoerythrin) labeled goat anti-human IgG (Fc specific) antibody for 30 min at 4C, washing the cells 2× as above, and analyzing by FACS (FIG. 1).
(In general: In flow cytometry, cells or beads pass a laser one at a time.)

Experiment [3] addresses T1, soluble TL1A-SH6 protein (his tagged). Description: FACS competition: TL1A SH6 at 200 ng/ml pre-incubated with dilutions of 10A4.F7, then added to hDR3 CHO cells, PE anti 6xHis detection. How it is done: as §1, §2
The target of experiment [4] is T2, TL1A expressed on transfected CHO cells. Description: FACS titration on TL1A CHO cells, detection with PE anti-human IgG (Fc specific); the box prints no unit, the axis is IgG (nM). The procedure: as §3, §4
In experiment [5] the target is T3, Hu-TL1A-His (Homo sapiens, UniProt O95150).
T3 construct: recombinant, His-tagged; also called Hu-TL1A-His antigen (Lot#50182AS151)
T3 sequence (ligand chain, looked up): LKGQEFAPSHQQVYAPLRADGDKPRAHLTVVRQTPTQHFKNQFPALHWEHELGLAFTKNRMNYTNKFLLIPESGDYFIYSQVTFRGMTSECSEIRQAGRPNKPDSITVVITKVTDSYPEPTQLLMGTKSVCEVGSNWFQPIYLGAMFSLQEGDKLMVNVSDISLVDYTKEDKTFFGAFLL
In words: SPR (Biacore), 10A4.F7 captured on a protein G surface, Hu-TL1A-His as analyte at 250, 200, 150, 100 and 50n. How it is done: Protein G chip (CM5) was made by coating it […] using acetate buffer (pH2.9). 10A4.F7 mab (7.5 ug/mL, 12 uL) was captured at 10 uL/min flow rate on Protein G surface. Hu-TL1A-His antigen (Lot#50182AS151) at multiple concentrations (250, 200, 150, 100 & 50n) were flowed over captured mab for 5 min at 25 ul/min and allowed to dissociate for 7.5 min. Protein G surface was regenerated with 10 uL of 50 mM NaOH and 5 uL of 25 mM HCL at 100 uL/min flow rate. Data was analyzed by using Biaevaluation 3.1. (FIG. 3)
(In SPR one partner is held on a chip, and binding of the other changes the refractive index at the surface.)

B1: monoclonal antibody 10A4.F7 (antibody, V domains shown)
VH: QLQLQESGPGLVKPSETLSLTCTVSGGSISSRSYYWGWIRQPPGKGLEWIGSIYYNGRTYYNPSLKSRVTISVDTSKNQFSLKLSSVTAADTAVYYCAREDYGDYGAFDIWGQGTMVTVSS
VL: AIQLTQSPSSLSASVGDRVTITCRASQGISSALAWYQQKPGKAPKLLIYDASSLESGVPSRFSGSGSGTDFTLTISSLQPEDFATYYCQQFNSYPLTFGGGTKVEIK
notes: Hybridoma subclone of parental clone 10A4 (KM mouse, human IgG kappa); also called TL1A 2596.10A4.F7
Usually IC50 stands for the concentration needed to halve the response being measured. Broadly, the EC50 is the concentration giving half of the maximal effect. A high value points to a less potent agent. The Kd is the constant that tells how readily two partners part at equilibrium. The term koff denotes a measure of how fast the partners let go of each other. Low readings indicate slow dissociation, high ones fast dissociation. As usually defined, the kon is the second-order rate constant of association. A low value points to slow association. In the case of B1, the 50% inhibitory concentration (IC50) in experiment [1] came out at 0.525 nM. In addition, the half-maximal effective concentration (EC50) in experiment [2] came to 0.4 nM. Further, the IC50 in experiment [3] is 0.524 nM. The EC50 in experiment [4] was 0.407 nM. In experiment [5], binding was put at a Kd of 0.38 nM, the off-rate (koff) came to 2.9e-05 s⁻¹ and the on-rate (kon) was 75000 M⁻¹ s⁻¹.
